Series [1] concerns the target T1, RORα1 (Homo sapiens, UniProt P35398 P35398:1-523).
T1 sequence: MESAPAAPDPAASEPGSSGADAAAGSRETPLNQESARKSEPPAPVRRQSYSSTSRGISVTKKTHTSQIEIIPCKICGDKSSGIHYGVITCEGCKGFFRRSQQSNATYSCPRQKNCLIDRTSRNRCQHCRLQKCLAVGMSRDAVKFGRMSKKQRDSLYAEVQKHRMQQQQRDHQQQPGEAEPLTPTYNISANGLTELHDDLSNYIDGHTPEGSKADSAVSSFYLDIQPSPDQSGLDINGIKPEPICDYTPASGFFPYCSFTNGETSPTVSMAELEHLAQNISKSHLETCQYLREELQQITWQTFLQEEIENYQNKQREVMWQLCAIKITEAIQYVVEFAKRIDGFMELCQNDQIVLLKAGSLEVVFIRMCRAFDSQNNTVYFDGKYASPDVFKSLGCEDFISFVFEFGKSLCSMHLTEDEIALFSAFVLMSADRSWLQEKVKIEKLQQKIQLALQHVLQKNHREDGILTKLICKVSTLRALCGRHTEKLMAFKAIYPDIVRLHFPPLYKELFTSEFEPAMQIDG
The experiment in a line: EMSA; supershift with RORα1 antibody; native competitor 1x-100x; exact probe length not stated. Conditions: tags: TNT-T7 Promega; hRORα1; label: labelled probe. Here is the method: (§1) FIG. 6C depicts the gel shift experiments conducted by using the in vitro translated RORαl protein (TNT-T7 Promega) and an IκBα-RORE labelled probe. […] To […] the mobility of the complex, 1 μl of RORα1 antibody was added to the binding reaction (S: shift of the complex; SS: super-shift of the complex; FP: unbound probe).
(§2) It has been shown that the negative dominant RORαΔ235 missing the LBD domain inhibits RORα1-induced transcription by competing with the same DNA binding domain (Mc Broom, L. D. B., Flock, G. and Giguère, V., Mol. Cell. Biol. 1995, 15: 796-808). The effect of this mutant on the promoter under the control of the IκBα gene RORE inducible by RORα1 was tested. Cotransfection with RORαΔ235 abolished the effect of RORα1 (FIG. 6B). […] Finally, binding of RORα1 to its response element RORE was checked by gel shift assays, using in vitro translated RORα1 protein.

The target in series [2] is T1, RORα1. The experiment in a line: competition; unlabelled mutated competitor 1x-100x used as specificity control; full oligo sequence not stated, SEQ 15 matches the ACCTCA mutation. To be noted: tags: TNT-T7 Promega; hRORα1. Here is the method:
as §1, §2

B1: IκBα-RORE (dsDNA)
DNA 1: GAGCACAATGTAGGTCAGATAG
DNA 2: CTATCTGACCTACATTGTGCTC
Turning to B1, the binding result in series [1] is “binds”.

B2: IκBα-RORE mutant (dsDNA)
DNA 1: GAGCACAATGTACCTCAGATAG
DNA 2: CTATCTGAGGTACATTGTGCTC
With B2, in series [2], the binding result is “no binding”.

These data come from US20050260575, “Method for identifying substances useful for treating inflammation using the response element to the ikbalpha ror receptor” (published 2005).
